The source of these data is patent US20140271651A1 (AbbVie / Abbott, published 2014).

This experiment addresses T1, GP73-hFc (human GP73 amino acids 63 to 400 fused at the C-terminus to human IgG1 Fc) (human).
T1 construct: Expressed in HEK293F, CHO or HepG2 cells; the host is named under assay; also called HEK expressed GP73-hFc; CHO expressed GP73-hFc
T1 chain: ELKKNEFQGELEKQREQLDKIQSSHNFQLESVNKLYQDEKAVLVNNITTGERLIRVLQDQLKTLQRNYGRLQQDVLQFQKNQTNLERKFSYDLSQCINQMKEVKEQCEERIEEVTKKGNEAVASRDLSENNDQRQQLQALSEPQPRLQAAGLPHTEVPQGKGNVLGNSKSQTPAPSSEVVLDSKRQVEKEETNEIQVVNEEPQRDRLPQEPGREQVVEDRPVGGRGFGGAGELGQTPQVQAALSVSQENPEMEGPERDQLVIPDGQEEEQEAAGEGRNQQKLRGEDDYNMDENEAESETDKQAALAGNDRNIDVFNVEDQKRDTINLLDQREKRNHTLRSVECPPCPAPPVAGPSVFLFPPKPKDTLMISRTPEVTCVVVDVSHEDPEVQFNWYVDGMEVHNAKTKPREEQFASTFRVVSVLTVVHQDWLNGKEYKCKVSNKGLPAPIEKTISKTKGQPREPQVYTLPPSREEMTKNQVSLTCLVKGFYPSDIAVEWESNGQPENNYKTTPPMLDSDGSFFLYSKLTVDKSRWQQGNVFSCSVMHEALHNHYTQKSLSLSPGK
The experiment in a line: SPR Biacore 2000, mAb captured on rabbit anti-mouse IgG, HEK GP73-hFc analyte 0.412-100 nM, 1:1 fit; standard error 2 × 10^-5, larger than the value; dissociation hardly resolved. Here is the method: First, an approximately 13,000-15,000 RU rabbit anti-mouse IgG Capture Biosensor was created by amine-coupling rabbit anti-mouse IgG antibody (GE Healthcare) to a CM5 biosensor chip (GE Healthcare) via EDC/NHS/ethanolamine chemistry provided in an Amine Coupling Kit (GE Healthcare) after pre-treating the biosensor with duplicate injections of 100 mM HCl, 50 mM NaOH, and 0.1% SDS. Purified GP73 antibody and antigen (HEK GP73-hFc) were diluted into a running buffer (hereinafter “running buffer”) composed of HBS-EP buffer (GE Healthcare) supplemented with 0.1% BSA and 0.1% CM-Dextran. Each GP73 antibody was diluted to 1 μg/mL. The GP73-hFc antigen was diluted to concentrations of 0.412 to 100 nM using a 3-fold dilution series assuming an oligomeric molecular weight of 490 kDa (Abbott Laboratories).
The GP73-hFc antigen program was as follows. After equilibrating the rabbit anti-mouse IgG Capture Biosensor for 3 min at 5 μL/minute with running buffer, GP73 antibody (7-14 μL) was injected over individual flow cells with one flow cell being left blank as a reference flow cell. […] The binding kinetics (association and dissociation) were monitored via sensorgrams during antigen injection and running buffer re-equilibration. […] Standard errors of determined values are reported in parentheses with respect to the smallest number place value.
On the technique in general: Surface plasmon resonance follows binding to a sensor surface in real time, without labels.

B1: anti-GP73 monoclonal antibody 1B-4971 (antibody, V domains shown)
VH: QVQLQQSGPALVKPGASVKMSCKASGYTFTNYVIHWVKQKPGQGLERIGYIWPYNDGTKFNEKFKGKATLTSDKSSSTAYMELSSLTSEDSAVYYCSSQQLAYWGQGTTLTVSS
VL: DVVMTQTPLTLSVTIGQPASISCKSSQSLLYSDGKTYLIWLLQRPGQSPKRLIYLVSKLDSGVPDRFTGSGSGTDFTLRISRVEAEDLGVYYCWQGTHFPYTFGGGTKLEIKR
notes: Biotin labelled in some assays; also called mAb 1B-4971; 1B-4971-Bt
Take B1: the koff was no more than 1e-05 s⁻¹.

The term koff denotes a measure of how fast the partners let go of each other. Low readings indicate a long-lived complex, high ones a short-lived complex.
